Measured values taken from patent US20100092974A1, “METHODS FOR SCREENING FOR MODULATORS OF CCRL2” (The Board of Trustees of the Leland Stanford Junior …, priority 2008, published 2010).

T1: mCCRL2 (Mus musculus, UniProt O35457)
T1 construct: The coding regions of mCCRL2, huCCRL2, mCRTH2, and huCCR10 were amplified from genomic DNA; expressed in transfected cells
T1 sequence (O35457 1-360): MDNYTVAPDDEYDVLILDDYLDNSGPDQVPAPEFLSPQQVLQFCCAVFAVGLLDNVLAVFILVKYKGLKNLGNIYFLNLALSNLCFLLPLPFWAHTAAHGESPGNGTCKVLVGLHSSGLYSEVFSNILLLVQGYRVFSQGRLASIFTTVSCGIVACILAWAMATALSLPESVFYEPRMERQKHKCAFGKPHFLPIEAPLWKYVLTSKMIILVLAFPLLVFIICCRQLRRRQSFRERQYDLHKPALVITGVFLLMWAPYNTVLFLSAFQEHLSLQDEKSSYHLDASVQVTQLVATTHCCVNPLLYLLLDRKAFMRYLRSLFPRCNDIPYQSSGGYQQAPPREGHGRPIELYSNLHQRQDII

T2: huCCRL2 (Homo sapiens, UniProt O00421)
T2 construct: The coding regions of mCCRL2, huCCRL2, mCRTH2, and huCCR10 were amplified from genomic DNA; expressed in transfected cells
T2 sequence (O00421 1-344): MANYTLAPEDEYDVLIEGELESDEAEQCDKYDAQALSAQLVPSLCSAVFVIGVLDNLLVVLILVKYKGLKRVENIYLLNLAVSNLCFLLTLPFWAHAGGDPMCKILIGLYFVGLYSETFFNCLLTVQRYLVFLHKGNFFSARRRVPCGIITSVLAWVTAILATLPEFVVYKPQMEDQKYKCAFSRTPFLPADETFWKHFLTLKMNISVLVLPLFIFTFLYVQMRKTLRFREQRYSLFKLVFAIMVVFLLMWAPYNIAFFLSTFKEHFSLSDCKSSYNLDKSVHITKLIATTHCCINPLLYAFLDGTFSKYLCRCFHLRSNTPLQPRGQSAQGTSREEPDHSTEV

T3: mouse CCRL2 (chemokine (CC motif) receptor-like 2), untagged (mouse, UniProt O35457 1-360)
T3 construct: whole, on cells; also called mCCRL2; mCCRL2/L1.2
T3 sequence (looked up): T1 sequence (O35457 1-360)

B1: radioiodinated human chemerin (residues 21-148) (ligand, UniProt Q99969 21-148, looked up)
chain: ELTEAQRRGLQVALEEFHKHPPVQWAFQETSVESAVDTPFPAGIFVRLEFKLQQTSCRKRDWKKPECKVRPNGRKRKCLACIKLGSEDKVLGRLVHCPIETQVLREAEEHQETQCLRVQRAGEDPHSF
modifications: 125I-labelled (radioiodinated), specific activity 97 Ci/g
B2: CCL27: known chemoattractant (protein, UniProt Q9Y4X3 25-112, looked up)
C-C motif chemokine 27: FLLPPSTACCTQLYRKPLSDKLLRKVIQVELQEADGDCHLQAFVLHLAQRSICIHPQNPSLSQWFEHQERKLHGTLPKLNFGMLRKMG
B3: carboxyl-terminal His8-tagged "pro-form" human chemerin (ligand)
chain: ADPELTEAQRRGLQVALEEFHKHPPVQWAFQETSVESAVDTPFPAGIFVRLEFKLQQTSCRKRDWKKPECKVRPNGRKRKCLACIKLGSEDKVLGRLVHCPIETQVLREAEEHQETQCLRVQRAGEDPHSFYFPGQFAFSKALPRSPHHHHHHHH
notes: Printed with an ellipsis, and with six H although called His8-tagged; also called His8-tagged chemerin isoform
B4: CCL17: known chemoattractant (protein, UniProt Q92583 24-94, looked up)
C-C motif chemokine 17: ARGTNVGRECCLEYFKGAIPLRKLKTWYQTSEDCSRDAIVFVTVQGRAICSDPNNKRVKNAVKYLQSLERS
B5: CCL22: known chemoattractant (protein, UniProt O00626 25-93, looked up)
C-C motif chemokine 22: GPYGANMEDSVCCRDYVRYRLPLRVVKHFYWTSDSCPRPGVVLLTFRDKEICADPRVPWVKMILNKLSQ
B6: CCL25: known chemoattractant (protein, UniProt O15444 24-150, looked up)
C-C motif chemokine 25: QGVFEDCCLAYHYPIGWAVLRRAWTYRIQEVSGSCNLPAAIFYLPKRHRKVCGNPKSREVQRAMKLLDARNKVFAKLHHNTQTFQAGPHAVKKLSSGNSKLSSSKFSNPISSSKRNVSLLISANSGL
B7: CCL8: chemokine purchased from R&D Systems (protein, UniProt P80075 24-99, looked up)
C-C motif chemokine 8: QPDSVSIPITCCFNVINRKIPIQRLESYTRITNIQCPKEAVIFKTKRGKEVCADPKERWVRDSMKHLDQIFQNLKP

Legend:
[1] = test system: mouse peritoneal mast cells; test: intracellular calcium mobilization, freshly isolated peritoneal mast cells; assay type: cell-based; conditions: 1000 nM chemerin, 100 nM ATP
Method: (§1) Chemoattractant-stimulated Ca^2+-mobilization was performed following Alliance for Cell Signaling protocol ID PP00000210. Cells (3×10^6/mL) were loaded with 4 μM Fluo4-AM and 0.16% Pluronic acid F-127 (Molecular Probes) in modified Iscove's medium (Iscove's medium with 1% heat inactivated bovine calf serum and 2 mM L-glutamine, Invitrogen) for 30 minutes at 37° C. The samples were mixed every 10 minutes during loading, washed once, resuspended at up to 2×10^6/mL in the same buffer, and allowed to rest in the dark for 30 minutes at room temperature. Chemoattractant-stimulated change in Ca^2+-sensitive fluorescence of Fluo-4 was measured over real-time with a FACsScan flow cytometer and CellQuest software (BD Biosciences) at room temperature under constant stirring (500 rpm). Fluorescent data were acquired continuously up to 1024 seconds at 1-second intervals. The samples were analyzed for 45 seconds to establish basal state, removed from the nozzle to add the stimuli, and then returned to the nozzle. Mean channel fluorescence over time was analyzed with FlowJo (TreeStar, Ashland, Oreg., USA) software. […] 500 μl of these chemerin-loaded cells were added to mCMKLR1/L1.2 cells loaded with Fluo4-AM, and calcium mobilization was evaluated.

mCCRL2 [2] = target: T1, mCCRL2; test: in vitro transwell chemotaxis, mCCRL2/L1.2 transfectants; assay type: cell-based; conditions: range of doses; CXCL12 and CCL19 act via endogenous CXCR4 and CCR7
Method: (§2) For migration experiments using cell lines, 2.5×10^5 cells/100 μl chemotaxis media (RPMI+10% fetal calf serum) were added to the top wells of 5-um pore transwell inserts (Costar, Corning, N.Y., USA), and test samples in 600 μl media were added to the bottom wells. After incubating the transwell plates for 1.5 hours at 37° C., the bottom wells were harvested and flow cytometry was used to assess migration. For primary cell chemotaxis, 1×10^6 cells/100 μl were added to the top well, and, following a 2 hour incubation at 37° C., polystyrene beads (15.0 μm diameter, Polysciences, Warrington, Pa., USA) were added to each well to facilitate normalization of the cell count. The cells were then stained for c-kit, F4/80, and/or CD11b expression and analyzed by flow cytometry. A ratio was generated and percent input migration was calculated.

huCCRL2 = target: T2, huCCRL2; test: in vitro transwell chemotaxis, huCCRL2-HA/L1.2 transfectants; assay type: cell-based; conditions: range of doses; CXCL12 and CCL19 act via endogenous CXCR4 and CCR7
Method: as §2

mCCRL2 [3] = target: T1, mCCRL2; test: intracellular calcium mobilization, mCCRL2/L1.2 transfectants; assay type: cell-based; conditions: Fluo-4; CXCL12 acts via endogenous CXCR4
Method: as §1

peritoneal macrophages = test: mCCRL2 expression on peritoneal macrophages cultured 24 h with stimuli; conditions: 24 h culture with stimulus
Method: Peritoneal lavage cells were obtained by i.p. injection of 10 mL PBS, gentle massage of the peritoneal cavity, and collection of the exudate. For some experiments, 500 μl of peritoneal cells (2×10^6 cells/mL) were incubated for 24 hours with either LPS (1 μg/mL), TNFα (10 ng/mL), IFNγ (100 U/mL), polyI:C (20 μg/mL), CpG (10-100 μg/mL), or TGFβ (5 ng/mL).

[4] = test system: mouse peritoneal mast cells; test: in vitro transwell chemotaxis, peritoneal mast cells; assay type: cell-based; conditions: SSChigh CD11b- c-kit+ cells
Method: as §2

bEND3 cells = test: CCRL2 expression in TNFα-treated bEND3 endothelioma cells; assay type: cell-based, mouse; conditions: 24-hour treatment, 20 ng/ml
Description: FIG. 22. […] Panel A. Robust upregulation of CCRL2 RNA by microarray analysis (Affymetrix®). Panel B. TNFα-treated bEND3 cells acquire CCRL2 surface protein (but not CMKLR1 expression) as determined by mAb staining and flow cytometry. Panel C. […] CCRL2/L1.2 and empty vector pcDNA3/L1.2 transfectants are shown as controls. The mean+/−SD of triplicate wells is shown for an individual experiment. A representative data set of 2 performed with similar results is shown for parts B and C, and n=1 for part A.
2005. J Exp Med 201: 509-515). […] We observed the same TNFα-mediated induction of protein expression by mAb staining […].

[5] = target: mouse CCRL2 (chemokine (CC motif) receptor-like 2), untagged (mouse) (UniProt O35457); test: saturation binding of 125I-chemerin 21-148 to mCCRL2/L1.2 cells, one-site fit; saturation binding, single site
[6] = target: T3, mouse CCRL2 (chemokine (CC motif) …); test: flow cytometry on peritoneal mast cells (F4/80-, c-kit+ gate) of WT and CCRL2 KO mice, 10 nM His8-tagged isoform, anti-His6 PE [panel E]

| Molecule | transwell migration (mCCRL2 [2]) | also measured |
| --- | --- | --- |
| Nc1ncnc2c1ncn2[C@@H]1O[C@H](COP(=O)(O)OP(=O)(O)OP(=O)(O)O)[C@@H](O)[C@H]1O [ATP, reference compound] | – | intracellular calcium mobilization [1]: responded |
| CCL5: chemokine purchased from R&D Systems | did not induce migration | – |
| CCL7: chemokine purchased from R&D Systems | did not induce migration | – |
| CCL11: known chemoattractant | none stimulated | – |
| CCL19: chemokine, positive control via CCR7 | migrated | transwell migration (huCCRL2): migrated |
| CCL28: known chemoattractant | none stimulated | – |
| CXCL9: known chemoattractant | none stimulated | – |
| CXCL12: chemokine, positive control via CXCR4 | migrated | transwell migration (huCCRL2): migrated; intracellular calcium mobilization (mCCRL2 [3]): responded |
| CXCL13: known chemoattractant | none stimulated | – |
| IFNγ: cytokine purchased from Roche | – | mCCRL2 protein expression on peritoneal macrophages (peritoneal macrophages): upregulated |
| SCF: stem cell factor, positive control for mast cell chemotaxis [reference compound] | – | transwell migration [4]: migrated |
| TNFα | – | mCCRL2 protein expression on peritoneal macrophages (peritoneal macrophages): upregulated; CCRL2 mRNA (bEND3 cells): highly upregulated; CCRL2 protein expression by mAb staining (bEND3 cells): induction |
| poly:IC | – | mCCRL2 protein expression on peritoneal macrophages (peritoneal macrophages): upregulated |
| B1 | – | Kd [5]: 1.6 nM |
| B2 | none stimulated | – |
| B3 | – | binding result [6]: binds |
| B4 | none stimulated | – |
| B5 | none stimulated | – |
| B6 | none stimulated | – |
| B7 | did not induce migration | – |
